Literature values in paper doi:10.1101/2025.05.26.656075.

Target: neonatal Fc receptor (FcRn), biotinylated (UniProt P55899+P61769)
Assay: not stated
Details: cited from earlier work

Row | Substance | KD (pH 6.0) | KD (pH low pH (number not given)) | KD (pH neutral pH (number not given))
1 | MFc4 (IgG4 monomeric Fc of Shan et al.) L351F;S354E;T366R;P395K;F405R;Y407E;L428M;L432C;H433S;N434Y;Y436L;T437C;delQ438 (as printed) | 5 nM | – | –
2 | native dimeric human IgG1 / IgG1 Fc (literature values) | 2,140 nM | 1,377 nM | ∼88,000 nM
